The target in this assay is PA-BODIPY conjugate (Bacillus anthracis protective antigen conjugated to BODIPY FL) (Bacillus anthracis, UniProt P13423 30-764).
Chain of PA-BODIPY conjugate (Bacillus anthracis protective antigen conjugated to BODIPY FL) (P13423 30-764 limits assumed): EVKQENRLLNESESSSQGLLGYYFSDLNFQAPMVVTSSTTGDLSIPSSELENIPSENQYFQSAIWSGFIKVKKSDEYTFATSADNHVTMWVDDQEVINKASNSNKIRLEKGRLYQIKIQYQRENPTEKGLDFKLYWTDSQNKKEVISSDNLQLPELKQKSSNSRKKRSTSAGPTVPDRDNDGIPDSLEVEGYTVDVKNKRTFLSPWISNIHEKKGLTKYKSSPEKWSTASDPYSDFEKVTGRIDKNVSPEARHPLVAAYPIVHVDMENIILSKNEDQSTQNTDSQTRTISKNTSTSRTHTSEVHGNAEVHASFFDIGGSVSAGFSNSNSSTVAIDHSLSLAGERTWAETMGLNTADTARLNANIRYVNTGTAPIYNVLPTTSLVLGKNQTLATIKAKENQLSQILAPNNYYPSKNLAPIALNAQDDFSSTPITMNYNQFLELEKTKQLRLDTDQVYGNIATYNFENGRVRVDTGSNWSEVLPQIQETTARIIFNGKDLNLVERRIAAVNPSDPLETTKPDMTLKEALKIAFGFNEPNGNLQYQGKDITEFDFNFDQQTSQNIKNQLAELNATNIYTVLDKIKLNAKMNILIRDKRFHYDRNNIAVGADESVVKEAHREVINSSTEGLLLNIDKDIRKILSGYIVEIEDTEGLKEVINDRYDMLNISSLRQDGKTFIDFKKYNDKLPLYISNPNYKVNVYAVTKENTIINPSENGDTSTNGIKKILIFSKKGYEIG

B1: NlpA-[14B7 scFv] fusion anchored on the E. coli inner membrane (scFv)
scFv: CDQSSSDIQMTQTTSSLSASLGDRVTISCRASQDIRNYLNWYQQKPDGTVKLLIYYTSRLQSGVPSRFSGSGSGTDYSLTISNQEQEDIGTYFCQQGNTLPWTFGGGTKLEIKRGGGGSGGGGSGGGGSGGGGSEVQLQQSGPELVKPGASVKISCKDSGYAFSSSWMNWVKQRPGQGLEWIGRIYPGDGDTNYNGKFKGKATLTADKSSSTAYMQLSSLTSVDSAVYFCARSGLLRYAMDYWGQGTSVTVSS
Consider B1, for which the “fold higher mean fluorescence intensity compared to controls” value was about 9 fold.

The values are drawn from patent US20050106647A1 (University of Texas, published 2005).
